Assay: label from the status in PepcDB records
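Note: failed if final PepcDB status was selected cloned or expressed and not failed if soluble or beyond.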

Row | Sequence | protein production
1 | MINFFDLFLSDFLTSLRLFCKVWDEQTTLQALLEHVRAIPGHCQKKILTKLLVTDIWDKEDTKLLAALKHIDVRPTRVACRPSLQVLGLYNDVVTVFQTHGMGWYREIDEDVYPKLVKEFIATCRLTYANPENPKASQGTLTFFLNKKHYNKTMFEIYDMYGFTKGEAVEFSKLSPTHITSLLSTTNPVFEHNEQYLVPDPSKTVPRRRRTAEAQPTDEHVISNDEIYEDYAYPTSLAHAQPYLLLPEDPTPYRVSPPPAGDDISQQMAWMIALTRKNNSMMHKMWRAISRIRPCVCTRRGGVDDANRENQSKTIEDRHAERLVPAAGPSGASTSQPPPEHSQAVA | not failed
2 | MTLSPNLRGALWMLASAVGFTVMTTLIKFLGDDYPAALQTFYRQLAGVLVLLPLIARDWRGAFRTTRPGIVIFRSSAGVLALIMSFYAYQKLPLADANALSFTRTLWLVPLAGLVLREPIGPRRISAALVGFVGVLIMLQPGAGGVEAWLGWPQLCALGAAFLFALTITGMKVMTRDHTPFVLLVYAAVLGLVFAIPPALFVWRWPTWPDLGLLAAMGVIGTLTQGAYIKGMEAGEAAVMAPVDYTRLVFAVIVGFLLFQEVPRTATVVGAVIVVGSTLFISWREHQLAKQAAAEPT | failed
3 | MRLQELVLVKISLVFLWLIGFVFLQRSEENGFEEPNNGEELSWDDLEREAASNISSKRSHAERSHQHESFTKGDELSGDLYELWRQEQNSIAARLDKELKSRWELDELIEEQLSRYQSHYDNSMVSTFLKDVSNLVLPTWIPPHELAAVAWLGDWRPTSILDLVRILAAQNPSFSLSESSLRVLSQLLREIRIEEAVIDEEYAEIQATGVLYLPFSPLCNTRLHEEALRSVQELFGNIHKVISKAQRLRYKVLELVMKKLLNQTDTAEFVVAFAGIQDAIHQFGEQKKLRKIYPAVPSPLKGSGSSS | not failed
4 | MENGLAQGIGGIAFLVGVMAFWQKDDLRFRYQMMAFCFIMGVHFALLGATVAAIGVVINGIRSFASIKTQSRKVMWFFIALMWLMTLPNMSHFFELLTVIGSSVATWALFSKQGIALRSLILFNSFCWVSHNLWLGSIGGSLVESTFIVTNLLTIYRLFHAQERISQTQNNQFLASNTESSTD | failed
5 | MVKATKAEKKIAYDTKLCQLIDEYTQILVVAADNVGSTQLQNIRKGLRGDSVVLMGKNTMMKRSVRIHSENTGNTAILNLLPLLQGNVGLIFTKGDLKEVSEEVAKYKVGAPARVGLVAPIDVVVQPGNTGLDPSQTSFFQVLNIPTKINKGTVEIITPVELIKQGDKVGSSEAALLAKLGIRPFSYGLVVQSVYDNGSVFSPEVLDLTEDQLVEKFASGISMVTSLALAVSYPTLAAAPHMFINAYKNALAIAVATEYTFPQAEKVKEYLKDPSKFAVASVAAVSADAGGGAPAAAKVEEKEESDEEDYGGDFGLFDEE | failed
6 | HTETGNIWTHLLGFVLFLFLGILTMLRPNMYFMAPLQEKVVFGMFFLGAVLCLSFSWLFHTVYCHSEKVSRTFSKLDYSGIALLIMGSFVPWLYYSFYCSPQPRLIYLSIVCVLGISAIIVAQWDRFATPKHRQTRAGVFLGLGLSGVVPTMHFTIAEGFVKATTVGQMGWFFLMAVMYITGAGLYAARIPERFFPGKFDIWFQSHQIFHVLVVAAAFVHFYGVSNLQEFRYGLEGGCTDDTLL | failed
7 | SNKLYIGNLSPAVTADDLRQLFGDRKLPLAGQVLLKSGYAFVDYPDQNWAIRAIETLSGKVELHGKIMEVDYSVSKKLRSRKIQIRNIPPHLQWEVLDGLLAQYGTVENVEQVNTDTETAVVNVTYATREEAKIAMEKLSGHQFENYSFKISYIPDEEVSSPSPPQRAQRGDHSSREQGHAPGGTSQARQIDFPLRILVPTQFVGAIIGKEGLTIKNITKQTQSRVDIHRKENSGAAEKPVTIHATPEGTSEACRMILEIMQKEADETKLAEEIPLKILAHNGLVGRLIGKEGRNLKKIEHETGTKITISSLQDLSIYNPERTITVKGTVEACASAEIEIMKKLREAFENDMLAVNQQANLIPGLNLSALGIFSTGLSVLSPPAGPRGAPPAAPYHPFTTHSGYFSSLYPHHQFGPFPHHHSYPEQEIVNLFIPTQAVGAIIGKKGAHIKQLARFAGASIKIAPAEGPDVSERMVIITGPPEAQFKAQGRIFGKLKEENFFNPKEEVKLEAHIRVPSSTAGRVIGKGGKTVNELQNLTSAEVIVPRDQTPDENEEVIVRIIGHFFASQTAQRKIREIVQQVKQQEQKYPQGVASQRSK | not failed
8 | MPYKNILTLISVNNDNFENYFRKIFLDVRSSGSKKTTINVFTEIQYQELVTLIREALLENIDIGYELFLWKKNEVDIFLKNLEKSEVDGLLVYCDDENKVFMSKIVDNLPTAIKRNLIKDFCRKLS | not failed
9 | MKPEISIIVPIYNVEKYLSKCIDSILNQSFTNFELILVNDGSNDRSGIICDEYTLKDERIRVIHKKNGGVSSARNSGISLALGKYIGFVDPDDYIKEEMYEILYNLCKKYKTDISICKLGREINGTLINNEENGEIIELDNVNGLKELFKGILYRFSLCNKLFKRECFRGVIFPEGRIHEDLSTTYRLFANAKKSIYFDYVGYIYVKRENSILTTTYNEKRLQAFIGWNEILEFMINKYPMLEDNVVACFGYSCIDHSNYILNQVIGFNNKIRLLNFIRYEVKQRFSLLVKNKILINKLKLILILLMLNSRFLIISKYKGKGVYRKRIRI | failed
10 | DDNSYSLGDIWIAVATVVPEGNNVYYLRLDDGDKLWPAATNYPNYQPKPNQRALVNFTILADSTQSNLGGFSHYIKVNAIHNILTKSIAKNEGAANDSIYGTDPVSIYNNNMWIGDGYLNIYFETLWGGKTAHFINLIQPDAENDPYTLEFRHNAYDDPQYTIGAGRVAFNLSSLPDTKGETVDLVVNYWTSEGKQAYKLKYNSDKTKMEDTSQGYTNDSISNITDMK | not failed
11 | MPQVKLKEGEPVDVAIRRFKRSCEKAGVLADVRKREFYEKPTQERKRKKAAAVKRYQKKLARESVRTTRLY | failed
12 | MMKRVNSHGSDYWRKNGCDFTDHRAFAPVKILDVAQIKENPMSEQIELIRLAIFFSVLVICALWESNRPRKTLSQSKRVRWLNNLGLVGFNSLLITALMPILAFSAAQWAQSQQFGLLYWLEIPPFIALFVAVVLLDAVIYWQHLLFHRIPLLWRLHRMHHADQDIDVTTGSRFHPLEIMISAWIKIGAVTLLGASPLAVVVFEILLNASAMFNHSNAKLPYKIDQWLRLLVVTPDMHRVHHSVLVHETHSNFGFFLSIWDKMFHTYIAQPEMGHERMKIGLPLFRQAREQWLDKMLTQPFRER | failed
13 | MSLVVCQPQINESFYQKDDMGGLSFLQSMSDITSIAQTKEDKAYVHPMEKRSVSKLNEKSLEMCTESLGTETGSESGDELSLLAFEATTTPRAPPRQLKPQEDTNLPDKTPPMSRNNSFPPPIKFVEDSKYNRMVRWLGEDGRIVVQAIRVSSPPSCFVSERGEGRLRLILTSESSLLSHNHEEEEEEETEEGIDEETSENLEGKSGNKKFSRFSRRCKENGREPKPMLTWKQQQFWVAT | failed
14 | MAITVSIELNRDLEIPASYDEVFDLLADVPKSASHFPKVDKLVDLGNNAYRWEMEKVGVDKHAIQSVYACTYHADKEAGKITWSPIKGEGNGVVSGSWTLSAKGDNATAVKFQTSAELTVPLPSLLKLAISPVIKHEFNSLVDTYMANLKKAFLEHHHHHH | not failed
15 | MAGFISNFFGVGDSDSQYEEPTEASQAAAPTESATNTRSTPKVVPMQGGKSVNSKIALFEPKIYSDVKEIATQLLKNQAVIINFDHVDDEMARRIVDFLTGTVFAINGEIERIGDEIFLCIPENYEVSGSTTSQFDTSKLLEHHHHHH | not failed
16 | QVGIYRTRTCDGLILNANQRFADLFGFDSPQEIIGIEHTIGYWVNPSDRQQGIEVMKRDGEVRSYEAQMRKRDGTVFWGLFSSYLNAGDDYIEGVIADISDVYDELRLRKQAEVALQASEAELRSLFSAIPDPLCVVTAQ | failed
17 | AIAMFTLPLLFPIITLPEPTGKYTVGTKAFHLIDTNRKETTVPNNHGNRELMIQVYYPAEKGSGKPSAYFENIDALAEQLAVTKGAPYIVTTHLGLTKTHSYQDAKPLQVKEKFPLLLFGHGMELYGQQNTFQLEELASQGYVVIALNFTGYAATTIFPNGKRIDSVPIEFTPNALNNMVRNWEQDTTFILNEVIKGNFDKNFTAIANLIDDDKIGMFGHSYGGATAAQMLVKDNRIKAAIDMDGGLYGDPMPKDGPQKPFMLMNAEATIQYMKEAENQKTDGIQDELFEISYLRNKTIEKPGAYTVVLPKTNHNSFTDLAAFSPIINEPGEDVSANYTLINKLVTSFFDQTLKG | failed
18 | MLARAALILLFFGLLGDSGAGQGRDGNALFDRGRYVAAAETYRAGLDALDDTTGSVYTGLQNNLGLALHRQERLGAARAALRKARRAATTEAERVRVLFNAATVAAEMNDRTKALDRYRTVLLLDPTHEAARFNYEYLKRQAGGGAGSDPPTLEPSPFAQKLKERADALVARTQYTTAAALLRDGMQKDSTVRAYRDFVTRIEEIAQIARSDP | failed
19 | MFREFINLLFMQFKMIKAYLPVFIFFSILFPLGFIFSFGTIIQRTLSTYLISGSITFFISINSIISVAQNLALERSSGRFSLMIASGIPIQLYAISITISNGIQTLMLIPVFLVLGYFLLGVRISSALFFVLSIIGSIYMASMVGLLIGTAIRNLHAVNQWSSIIGFILSFFAPVYFPLTQIPLPFRYLAYLEPTTYVSQSTYFALVGNPISLAWFGGTVVIGFLFSFLSSLLMKKAF | failed
20 | MSSNECFKCGRSGHWARECPTGGGRGRGMRSRGRGFQFVSSSLPDICYRCGESGHLAKDCDLQEDACYNCGRGGHIAKDCKEPKREREQCCYNCGKPGHLARDCDHADEQKCYSCGEFGHIQKDCTKVKCYRCGETGHVAINCSKTSEVNCYRCGESGHLARECTIEATA | failed
21 | MDTLPHHLLDEILFRIDHRSLAMIQCTNRSLQSHISKTPNFASEYFSRIRSSLLYIATHGCPLICYHLYGDSRSPRTVETLTQCHILGYCSGLLLLFLNKNLCVANPLTKKFRFLNHSRSKFFPTDFTLRGGRQQVIGFAVDQTDRTTPSFKIVNIKEGAVHWLRNDGSIVAFNLKTEKARLIPIRFPKELCLKTLFTAVDNNLTLISATEEVIYVYAFHNILSDPKWVLVKQIRNGVLDEKRLYSWYVEAYDGKSLVLRETILKKDYYNKHLKQVLHGYDLRANKWEVIGSIPEWSPSGLDFYQFTPSPSSVIGLDDKEGEEILACDDKRIPSVNAIMRLIYGIS | failed
22 | MVSRTGRTHLPLVDSLKEKLPYILCGLLALAGVLLVWSLGSTFLPVLLALILAYVLNPLVTWLEARRVPRVAAVLLVMALIVVVTAGAVTFFAVSIQKEVARVEINLPAYATRLYDLIPGQAKAYLEIETPDKLYARIDSLVDELRGASFDLVKGALGVVQRAFSSTLGFLLTVAGYFITPVYLYYFLADLPRLRDGIMALVPGRARDRAAMLGSEIDGVLSGFVRGQLAVCAILAVLYSIGLVMIGIDLAIVIGSLSGFLFIIPYVGTVFGIVVSMIMAFLKFHDMLHPLLCLGWFAIVQAIEGALITPAVVGNTVGLHPVVAILALFIGGQWFGIFGMLLAVPVAAVIKVLLRHGVEWYRATPFFERP | failed
23 | MKQLNDGDFIKIEFEMRVGEEKKLVSTSKADLAKENDIFDENARYGDIVVIVGQEGIFKEVNEAFRKAEPGQEVEVEVPPEDAFGQRLPSNIKIHTMREFQRLEHHHHHH | not failed
24 | MSLDRLAPAIFVFLWSTGWVTAKYAVYYTGPLTFLCLRYLLAGLLLWAICRFSGISWPKQRADVLRAILSGVFLHGIYLGMIWWAIGQGVPAAIGGIIAGLQPLMTAVAARFMIGERISPLQRAGLLLGFAGIAIAVLPKVMATGALGMSVPLYAVAVNVLGMVSVTYGTLYQKKYVHGGNIMAVATLQYVGALLVTVPFALLLEDGHVDWSLGLAATLGWSVGAISIGAVALLLYLIRRGQVSRAASLIYLVPPLAAVEAAVLFGETLTPAMIAGTVLAVTGVYLANRKPAASVAVR | failed
